Laboratory results reported in patent publication WO2011161189A1 (dated 2011).

How the values were obtained:
[1] = molecular target: T1, human hepsin (recombinant EE-tagged, amino acids 45-417, enzymatically active two-chain form) (human, UniProt P05981 45-417); experiment: Biacore (SPR)
T1 construct: range 45-417; The assays say only 'hepsin' or 'purified human hepsin'; also called hHepsin; purified hepsin

[2] = molecular target: T1, human hepsin (recombinant EE-tagged, …); experiment: cell-based or functional assay
mouse hepsin = mouse hepsin (mouse, UniProt O35453 60-436, limits assumed); experiment: cell-based or functional assay
Chain of mouse hepsin (O35453 60-436 limits assumed): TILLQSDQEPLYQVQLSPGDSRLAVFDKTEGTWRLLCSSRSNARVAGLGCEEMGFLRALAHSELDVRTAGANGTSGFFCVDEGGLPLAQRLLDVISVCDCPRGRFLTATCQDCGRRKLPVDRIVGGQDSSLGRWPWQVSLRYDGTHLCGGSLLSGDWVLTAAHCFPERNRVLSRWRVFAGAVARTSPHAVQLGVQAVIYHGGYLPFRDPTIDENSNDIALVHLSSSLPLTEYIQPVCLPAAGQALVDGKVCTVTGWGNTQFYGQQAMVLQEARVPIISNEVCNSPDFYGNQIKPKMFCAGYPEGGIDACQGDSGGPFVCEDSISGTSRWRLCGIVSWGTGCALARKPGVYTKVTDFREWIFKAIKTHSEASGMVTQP

[3] = molecular target: T1, human hepsin (recombinant EE-tagged, …); experiment: SPR kinetics, antibody captured on CM5 chip, hepsin injected, 298 K
cynomolgus hepsin = cynomolgus hepsin (cynomolgus monkey); experiment: cell-based or functional assay
[4] = molecular target: T1, human hepsin (recombinant EE-tagged, …); experiment: enzyme kinetics (Ac-KQLR-AMC hydrolysis after preincubation), fit to tight binding inhibitor equations of the mixed type; apparent Ki

T1 sequence (P05981 other isoform, or with tags, fused parts or gaps limits assumed): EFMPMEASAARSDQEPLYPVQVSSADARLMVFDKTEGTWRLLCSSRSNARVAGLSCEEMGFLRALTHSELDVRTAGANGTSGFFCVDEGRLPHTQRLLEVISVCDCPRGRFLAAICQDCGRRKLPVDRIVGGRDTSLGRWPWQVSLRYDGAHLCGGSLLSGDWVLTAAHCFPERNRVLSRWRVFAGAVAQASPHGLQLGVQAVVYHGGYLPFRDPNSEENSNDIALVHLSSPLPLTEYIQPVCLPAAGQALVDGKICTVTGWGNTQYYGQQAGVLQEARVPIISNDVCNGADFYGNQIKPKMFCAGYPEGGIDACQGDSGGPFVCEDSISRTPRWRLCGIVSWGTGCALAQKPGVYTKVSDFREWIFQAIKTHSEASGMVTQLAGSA

B1: Mab 2.3.35 (antibody, V domains shown)
VH: QVQLQQSGPELVKPGASVKVSCKASGYTFTDFVINWVKQRTGQGLEWIGEIYPRSNSIYSNEKFKGKATLTTDKSSNTAYMQVSSLTSEDSAVYFCARGSGDYAMDYWGQGTSVTVSS
VL: ENVLTQSPAIMSASPGEKVTMTCSASSSVTYMHWYQQKSSTSPKLWIYDTSKLASGVPGRFSGSGSGNSYSLTIRSMEAEDVATYFCFQGSGFPLTFGGGTKLEIK
notes: also called antibody 2.3.35
Kd [1]: 22 nM
IC 50 in enzymatic activity assay of human hepsin [2]: 7 nM

B2: Mab 2.7.35 (antibody, V domains shown)
VH: QIQLVQSGPELKKPGETVKISCKASGYTFTDYSMRWVKQAPGKGLKWMGWINTETGNPTYADDFKGRFAFSLETSASTAYLQINNLKNEDTARYFCARGFAYWGQGTLVTVSA
VL: QAVVTQESALTTSPGETVTLTCRSSTGAVTTSNYANWVQEKPDHLFTGLIGDTNNRAPGVPARFSGSLIGDKAALTITGAQTEDEAIYFCALWYSNHFIFGSGTKVTVL
notes: Mouse monoclonal antibody from Balb/c hybridoma; also called mouse Mab 2.7.35; mH35
Kd [1]: 4 nM
IC 50 in enzymatic activity assay of murine hepsin (mouse hepsin): > 200 nM
IC 50 in enzymatic activity assay of human hepsin [2]: 14 nM
Kd [3]: 31.5 nM

B3: Mab55 (antibody, V domains shown)
VH: QVQLVQSGSELKKPGASVKVSCKASGYTFTDYSMRWVRQAPGQGLEWMGWINTETGSPTYADDFKGRFVFSLDTSVSTAYLQISSLKAEDTAVYYCARGFAYWGQGTLVTVSS
VL: QTVVTQEPSLTVSPGGTVTLTCRSSTGAVTTSNYANWVQQKPGQAFRGLIGDTNNRAPWTPARFSGSLLGGKAALTLSGVQPEDEAEYYCALWYSNHFIFGSGTKVTVL
notes: Humanized variant of Mab 2.7.35, stably expressed in CHO; also called hH35; humanized antibody Mab55
IC 50, cynomolgous hepsin assay (FRET peptide substrate) (cynomolgus hepsin): 0.99 nM
IC 50, human hepsin inhibition assay (FRET peptide substrate) [2]: 1.02 nM
inhibition increase compared to the chimeric antibody [2]: 6.7 fold
inhibition increase compared to the murine antibody [2]: 14.7 fold
Ki [4]: 0.39 nM
Kd [3]: 7.1 nM

B4: Mab53 (antibody, V domains shown)
VH: QVQLVQSGAEVKKPGASVKVSCKASGYTFTDYSMRWVRQAPGQGLEWMGWINTETGNPAYAQKFQGRVTMTRDTSTSTVYMELSSLRSEDTAVYYCARGFAYWGQGTLVTVSS
VL: QTVVTQEPSLTVSPGGTVTLTCRSSTGAVTTSNYANWVQQKPGQAFRGLIGDTNNRAPWTPARFSGSLLGGKAALTLSGVQPEDEAEYYCALWYSNHFIFGSGTKVTVL
notes: Humanized variant of Mab 2.7.35
Kd [3]: 36 nM
